How the values were obtained:
Assay in all cases: In vitro phosphorylation kinetics with recombinant Akt
Format in all cases: biochemical
Details in all cases: other: recombinant Akt; n = 3
[1] = tested on: CC(C)[C@H](NC(=O)[C@H](CCC(=O)O)NC(=O)[C@H](CCC(=O)O)NC(=O)[C@@H]1Cc2ccc(O)cc2CN1C(=O)[C@H](CCC(=O)O)NC(=O)[C@H](CC(=O)O)NC(=O)[C@H](CC(=O)O)NC(=O)[C@H](CCC(=O)O)NC(=O)[C@@H](CCCNC(=N)N)NC(=O)[C@@H](CCCNC(=N)N)NC(=O)[C@@H](CCCNC(=N)N)NC(=O)[C@H](C)N(C)C(=O)[C@H](Cc1ccccc1)NC(=O)[C@@H](NC(=O)[C@H](Cc1ccccc1)NC(=O)[C@H](C)NC(=O)[C@H](CCCNC(=N)N)N(C)C(=O)[C@@H]1CCCN1C(=O)[C@H](CCCNC(=N)N)NC(=O)CNC(=O)c1ccc2c(c1)C1(OC2=O)c2ccc(O)cc2Oc2cc(O)ccc21)[C@@H](C)O)C(N)=O
[2] = tested on: CC(C)[C@H](NC(=O)[C@H](CCC(=O)O)NC(=O)[C@H](CCC(=O)O)NC(=O)[C@H](Cc1ccc(O)cc1)NC(=O)[C@H](CCC(=O)O)NC(=O)[C@H](CC(=O)O)NC(=O)[C@H](CC(=O)O)NC(=O)[C@H](CCC(=O)O)NC(=O)CCCCCNC(=O)[C@H](C)N(C)C(=O)[C@H](Cc1ccccc1)NC(=O)[C@@H](NC(=O)[C@H](Cc1ccccc1)NC(=O)[C@H](C)NC(=O)[C@H](CCCNC(=N)N)N(C)C(=O)[C@@H]1CCCN1C(=O)[C@H](CCCNC(=N)N)NC(=O)CNC(=O)c1ccc2c(c1)C1(OC2=O)c2ccc(O)cc2Oc2cc(O)ccc21)[C@@H](C)O)C(N)=O
[3] = tested on: CC(C)[C@H](NC(=O)[C@H](CCC(=O)O)NC(=O)[C@H](CCC(=O)O)NC(=O)[C@H](Cc1ccc(O)cc1)NC(=O)[C@H](CCC(=O)O)NC(=O)[C@H](CC(=O)O)NC(=O)[C@H](CC(=O)O)NC(=O)[C@H](CCC(=O)O)NC(=O)[C@@H](CCCNC(=N)N)NC(=O)[C@@H](CCCNC(=N)N)NC(=O)[C@@H](CCCNC(=N)N)NC(=O)[C@H](C)N(C)C(=O)[C@H](Cc1ccccc1)NC(=O)[C@@H](NC(=O)[C@H](Cc1ccccc1)NC(=O)[C@H](C)NC(=O)[C@H](CCCNC(=N)N)N(C)C(=O)[C@@H]1CCCN1C(=O)[C@H](CCCNC(=N)N)NC(=O)CNC(=O)c1ccc2c(c1)C1(OC2=O)c2ccc(O)cc2Oc2cc(O)ccc21)[C@@H](C)O)C(N)=O

recombinant Akt (Homo sapiens)
Km [1]: 17 ± 5 µM | kcat [1]: 0.8 ± 0.1 s⁻¹ | Km [2]: 28 ± 16 µM | kcat [2]: 1.0 ± 0.4 s⁻¹ | Km [3]: 14 ± 3 µM | kcat [3]: 0.7 ± 0.1 s⁻¹

— PMC8753264
